Test results reported in article PMC3718021 (2013).
Where a chain is given by its changes, count along the chain named. In names and notes the source's numbering stands. Values belong to the binder of their own block, whether it stands above or below them.

How the values were obtained:
Assay in all cases: high-speed cosedimentation
γ-actin = γ-actin (Mus musculus, UniProt P63260)
[1] = target: platelet actin (85% β-actin, 15% γ-actin) (Homo sapiens, UniProt P60709)
α-skeletal F-actin = α-skeletal F-actin (Oryctolagus cuniculus, UniProt P68135)

B1: fascin-2 (protein)
chain: MPTNGLHQVLKIQFGLVNDADRYLTAESFGFKVNASAASLKRKQIWVLEPDPGQGTAVLFRSSHLGRYLSAEEDGRVACEMDQPGRDCRFLVLPQPDGRWVLQSEPHGRFFGGIEDRLSCFATAISPAELWTVHLAIHPQAHLLSVSRRRYVHLCLQEDEMAADGDMPWGVDALVTLIFQSRRYCLKSYDSRYLRSDGRLVWEPEAHACYTLEFKAGKLAFKDCDGRYLAPVGPAGTLKAGRNTRPSKDELFDLEQSHPQVVLVAANRRYISVRQGINVSANQDEELGHETFLMQIDQETKKCTFYSSTGGYWTLVTHGGIQATATQVSANTMFEIEWHGRRVALKASNGRFVCMKKNGQLAAISDFVGEDELFTLKLINRPLLVLRGLDGFVCHRRGSNQLDTNRSTYDVFHLSFRDGAYQIRGRGGGFWYTGSHGSVCSDGDLAEDFLFEFRERGRLAIRALSGKYLRGGASGLLRADADLPVGEALWEY
Kd (γ-actin): 6.17 µM
Kd [1]: 4.15 µM

B4: fascin-2 (protein)
chain: B1 chain
modifications: N-terminal flag tag, phalloidin-stabilized F-actin
Kd (α-skeletal F-actin): 4.95 µM

The next lines start with the values.

Kd (α-skeletal F-actin): 5.97 µM
B2: fascin-2 p.R109H (protein)
chain: B1 chain with R109H

Kd [1]: 3.91 µM
B3: fascin-2 S39A (protein)
chain: B1 chain with S39A
